Test results as given in article doi:10.1101/2022.12.21.520923 (bioRxiv, 2022).
Blank lines part the entries; values can stand above or below the binder they belong to.

B1: full-length GST-SNX5 (natural protein)
chain: MAAVPELLQQQEEDRSKLRSVSVDLNVDPSLQIDIPDALSERDKVKFTVHTKTTLPTFQSPEFSVTRQHEDFVWLHDTLIETTDYAGLIIPPAPTKPDFDGPREKMQKLGEGEGSMTKEEFAKMKQELEAEYLAVFKKTVSSHEVFLQRLSSHPVLSKDRNFHVFLEYDQDLSVRRKNTKEMFGGFFKSVVKSADEVLFTGVKEVDDFFEQEKNFLINYYNRIKDSCVKADKMTRSHKNVADDYIHTAACLHSLALEEPTVIKKYLLKVAELFEKLRKVEGRVSSDEDLKLTELLRYYMLNIEAAKDLLYRRTKALIDYENSNKALDKARLKSKDVKLAEAHQQECCQKFEQLSESAKEELINFKRKRVAAFRKNLIEMSELEIKHARNNVSLLQSCIDLFKNN
B2: His-SUMO-tagged CHC22 terminal domain (domain or fragment)
chain: MAQILPVRFQEHFQLQNLGINPANIGFSTLTMESDKFICIREKVGEQAQVTIIDMSDPMAPIRRPISAESAIMNPASKVIALKAGKTLQIFNIEMKSKMKAHTMAEEVIFWKWVSVNTVALVTETAVYHWSMEGDSQPMKMFDRHTSLVGCQVIHYRTDEYQKWLLLVGISAQQNRVVGAMQLYSVDRKVSQPIEGHAAAFAEFKMEGNAKPATLFCFAVRNPTGGKLHIIEVGQPAAGNQPFVKKAVDVFFPPEAQNDFPVAMQIGAKHGVIYLITKYGYLHLYDLESGVCICMNRISADTIFVTAPHKPTSGIIGVNKKGQVLSVCVEEDNIVNYATNVLQNPDLGLRLAVRSNLAGAEKLF

Key:
Test in all cases: pull-down
His-tagged CHC22 Hub = target: T1, His-tagged CHC22 Hub (human, UniProt P53675 1074-1640)
T1 sequence: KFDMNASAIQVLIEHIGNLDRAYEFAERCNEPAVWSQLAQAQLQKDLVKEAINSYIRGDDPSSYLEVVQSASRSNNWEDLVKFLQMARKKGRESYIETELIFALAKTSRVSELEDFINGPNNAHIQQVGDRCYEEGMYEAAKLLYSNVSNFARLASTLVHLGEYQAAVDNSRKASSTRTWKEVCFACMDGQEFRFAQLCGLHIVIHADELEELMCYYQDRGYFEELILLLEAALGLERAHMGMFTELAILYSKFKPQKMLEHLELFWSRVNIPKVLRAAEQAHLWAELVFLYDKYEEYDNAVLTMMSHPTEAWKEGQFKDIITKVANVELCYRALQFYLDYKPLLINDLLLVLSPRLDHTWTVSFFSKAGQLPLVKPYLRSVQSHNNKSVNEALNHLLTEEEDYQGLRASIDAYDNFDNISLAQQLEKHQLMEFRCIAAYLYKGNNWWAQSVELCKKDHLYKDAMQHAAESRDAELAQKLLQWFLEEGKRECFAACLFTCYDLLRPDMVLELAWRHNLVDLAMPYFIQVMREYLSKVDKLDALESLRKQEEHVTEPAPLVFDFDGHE

full-length His-p115 = target: T2, full-length His-p115 (UniProt O60763 1-962)
T2 sequence: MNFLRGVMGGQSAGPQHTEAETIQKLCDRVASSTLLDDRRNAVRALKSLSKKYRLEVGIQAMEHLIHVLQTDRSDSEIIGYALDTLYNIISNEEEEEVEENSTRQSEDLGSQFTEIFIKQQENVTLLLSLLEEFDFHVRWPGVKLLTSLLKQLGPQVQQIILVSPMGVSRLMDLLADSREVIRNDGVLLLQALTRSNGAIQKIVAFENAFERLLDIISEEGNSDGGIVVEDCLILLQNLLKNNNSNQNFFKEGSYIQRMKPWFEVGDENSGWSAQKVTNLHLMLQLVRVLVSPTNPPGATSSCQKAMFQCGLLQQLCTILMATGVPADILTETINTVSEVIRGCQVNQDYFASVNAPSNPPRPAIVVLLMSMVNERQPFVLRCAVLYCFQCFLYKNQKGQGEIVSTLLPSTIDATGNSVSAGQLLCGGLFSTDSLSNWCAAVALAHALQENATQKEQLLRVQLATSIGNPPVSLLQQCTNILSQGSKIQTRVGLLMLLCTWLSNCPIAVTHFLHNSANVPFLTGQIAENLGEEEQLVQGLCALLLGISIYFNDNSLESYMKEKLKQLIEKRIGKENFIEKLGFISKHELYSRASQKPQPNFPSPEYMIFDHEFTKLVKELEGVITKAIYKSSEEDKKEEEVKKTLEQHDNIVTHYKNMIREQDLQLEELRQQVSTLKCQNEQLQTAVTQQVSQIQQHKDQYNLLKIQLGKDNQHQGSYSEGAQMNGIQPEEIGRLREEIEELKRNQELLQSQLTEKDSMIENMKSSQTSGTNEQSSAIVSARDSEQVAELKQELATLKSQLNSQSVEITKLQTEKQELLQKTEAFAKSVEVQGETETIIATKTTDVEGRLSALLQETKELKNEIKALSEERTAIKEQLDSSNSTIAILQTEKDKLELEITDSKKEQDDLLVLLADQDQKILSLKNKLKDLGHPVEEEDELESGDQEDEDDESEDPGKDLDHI

[1] = target: full-length His-tagged SNX1 (UniProt Q13596 1-522)
Sequence of full-length His-tagged SNX1 (Q13596 whole entry): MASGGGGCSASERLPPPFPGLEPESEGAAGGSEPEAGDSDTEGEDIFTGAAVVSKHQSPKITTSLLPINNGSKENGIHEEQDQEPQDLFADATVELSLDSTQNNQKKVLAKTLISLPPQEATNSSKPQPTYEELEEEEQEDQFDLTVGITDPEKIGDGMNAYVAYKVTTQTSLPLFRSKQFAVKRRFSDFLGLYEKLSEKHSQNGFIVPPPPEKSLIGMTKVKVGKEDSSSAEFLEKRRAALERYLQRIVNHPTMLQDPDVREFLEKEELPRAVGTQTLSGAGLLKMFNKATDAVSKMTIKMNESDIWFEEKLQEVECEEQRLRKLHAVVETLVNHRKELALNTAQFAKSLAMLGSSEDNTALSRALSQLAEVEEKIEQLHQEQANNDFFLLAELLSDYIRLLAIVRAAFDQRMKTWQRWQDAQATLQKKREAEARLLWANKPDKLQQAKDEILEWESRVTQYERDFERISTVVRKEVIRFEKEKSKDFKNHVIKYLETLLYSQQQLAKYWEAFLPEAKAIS

full-length GST-p115 = target: T3, full-length GST-p115 (UniProt O60763 1-962)
T3 sequence: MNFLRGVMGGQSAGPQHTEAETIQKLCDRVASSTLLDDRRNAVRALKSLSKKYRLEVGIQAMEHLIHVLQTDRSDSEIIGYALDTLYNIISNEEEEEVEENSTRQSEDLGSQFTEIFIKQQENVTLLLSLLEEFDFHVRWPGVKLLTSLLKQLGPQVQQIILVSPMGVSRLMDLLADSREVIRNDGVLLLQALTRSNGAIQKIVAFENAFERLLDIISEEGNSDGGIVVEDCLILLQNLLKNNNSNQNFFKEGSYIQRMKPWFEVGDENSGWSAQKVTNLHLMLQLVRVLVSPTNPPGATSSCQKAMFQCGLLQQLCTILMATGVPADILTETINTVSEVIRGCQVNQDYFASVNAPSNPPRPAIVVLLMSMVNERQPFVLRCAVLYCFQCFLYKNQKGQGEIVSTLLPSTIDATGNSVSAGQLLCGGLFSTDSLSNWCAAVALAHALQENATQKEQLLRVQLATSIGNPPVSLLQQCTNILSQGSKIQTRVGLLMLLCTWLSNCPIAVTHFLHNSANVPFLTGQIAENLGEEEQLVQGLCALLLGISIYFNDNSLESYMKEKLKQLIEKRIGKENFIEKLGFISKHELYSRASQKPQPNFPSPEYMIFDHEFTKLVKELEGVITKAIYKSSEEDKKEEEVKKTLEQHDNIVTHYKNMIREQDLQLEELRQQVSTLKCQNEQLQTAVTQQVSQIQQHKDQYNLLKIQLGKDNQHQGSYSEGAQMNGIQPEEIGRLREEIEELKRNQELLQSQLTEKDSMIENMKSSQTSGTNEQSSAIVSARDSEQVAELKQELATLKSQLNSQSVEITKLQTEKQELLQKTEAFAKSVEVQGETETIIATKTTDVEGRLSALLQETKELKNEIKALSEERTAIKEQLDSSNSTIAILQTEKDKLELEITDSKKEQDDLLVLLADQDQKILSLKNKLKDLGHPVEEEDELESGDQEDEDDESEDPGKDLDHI

[2] = target: T4, His-SUMO CHC17 terminal domain (human, UniProt Q00610 1-364)
T4 sequence: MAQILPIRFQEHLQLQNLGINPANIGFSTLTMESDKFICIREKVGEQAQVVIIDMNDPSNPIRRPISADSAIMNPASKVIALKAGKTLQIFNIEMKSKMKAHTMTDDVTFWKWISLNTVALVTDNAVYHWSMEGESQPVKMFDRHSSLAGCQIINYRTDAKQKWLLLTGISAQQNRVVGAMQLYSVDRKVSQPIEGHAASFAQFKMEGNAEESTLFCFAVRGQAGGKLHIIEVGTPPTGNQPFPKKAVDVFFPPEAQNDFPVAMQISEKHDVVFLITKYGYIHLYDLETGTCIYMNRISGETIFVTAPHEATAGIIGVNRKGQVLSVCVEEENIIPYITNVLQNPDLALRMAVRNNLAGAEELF

[3] = target: B2
full-length GST-SNX5 = target: B1
[4] = target: T5, full-length GST-SNX5 phosphomimetic S226E mutant (human, UniProt Q9Y5X3 1-404, S226E)
T5 sequence: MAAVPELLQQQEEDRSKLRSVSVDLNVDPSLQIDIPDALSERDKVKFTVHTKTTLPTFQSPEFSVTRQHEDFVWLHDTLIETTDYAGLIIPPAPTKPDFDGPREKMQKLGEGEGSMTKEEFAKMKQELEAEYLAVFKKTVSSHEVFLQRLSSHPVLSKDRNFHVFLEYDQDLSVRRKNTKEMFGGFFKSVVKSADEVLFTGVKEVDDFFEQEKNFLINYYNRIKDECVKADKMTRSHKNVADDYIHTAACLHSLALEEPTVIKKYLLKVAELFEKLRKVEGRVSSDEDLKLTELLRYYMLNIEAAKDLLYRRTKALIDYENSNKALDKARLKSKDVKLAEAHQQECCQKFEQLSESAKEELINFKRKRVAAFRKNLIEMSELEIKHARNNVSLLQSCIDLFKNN

- binding result [2]: binds
- binding result [3]: binds
B3: GST-GGA2-HE (domain or fragment)
chain: GRVTFGNRVTSSLGDIPVSRVFQNPAGCMKTCPLIDLEVDNGPAQMGTVVPSLLHQDLAALGISDAPVTGMVSGQNCCEEKRNPSSSTLPGGGVQNPSADRNLLDLLSAQPAPCPLNYVSQKSVPKEVPPGTKSSPGWSWEAGPLAPSPSSQNTPLAQVFVPLESVKPSSLPPLIVYDRNGFRILLHFSQTGAPGHPEVQVLLLTMMSTAPQPVWDIMFQVAVPKSMRVKLQPASSSKLPAFSPLMPPAVISQMLLLDNPHKEPIRLRYKLTFNQGGQPFSEVGEVKDFPDLAVLGAA

- binding result (full-length GST-SNX5): binds
- binding result [4]: binds
B4: His-tagged CHC22 TxD (domain or fragment)
chain: WAQSVELCKKDHLYKDAMQHAAESRDAELAQKLLQWFLEEGKRECFAACLFTCYDLLRPDMVLELAWRHNLVDLAMPYFIQVMREYLSKVDKLDALESLRKQEEHVTEPAPLVFDFDGHE

The next lines start with the binder.

Binder: B1
- binding result (His-tagged CHC22 Hub): binds
- binding result (full-length His-p115): binds
- binding result [1]: binds

Binder: B2
- binding result (full-length GST-p115): binds
